The values that follow come from the supplement of paper PMC9112550, “Optimization of the antimicrobial peptide Bac7 by deep mutational scanning” (BMC Biology, 2022).
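Note: peptides expressed intracellularly from a pBAD plasmid library in pooled LB shake-flask culture, induced with 0.3% L-arabinose, DNA abundance read by NGS, three biological replicates, DESeq2 with apeglm shrinkage.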

For this series, the system named is Escherichia coli TOP10. The series is described as follows: shrunken log2 fold change of peptide-encoding DNA abundance (4.5 h post-induction vs induction); higher = less antimicrobial activity (less host growth inhibition). The settings on record: time post-induction: 4.5 h; library: site-saturation at positions 5, 18, 19, 20.
As for RRIRARPPRLPRPRPRPDPSPRP, the “shrunken log2 fold change” value was determined as 0.508. As for RRIRVRPPRLPRPRPRPICCPRP, the “shrunken log2 fold change” value is -0.0831.

In the case of RRIRPRPPRLPRPRPRPDIMPRP, the “shrunken log2 fold change” value was -0.0454.

As to RRIRPRPPRLPRPRPRPGMSPRP, the “shrunken log2 fold change” value worked out at 0.0989. As to RRIRHRPPRLPRPRPRPWYFPRP, the “shrunken log2 fold change” value is -0.813. For the sequence RRIRLRPPRLPRPRPRPLQWPRP, the “shrunken log2 fold change” value was found to be 0.126. For RRIRYRPPRLPRPRPRPIDDPRP, the “shrunken log2 fold change” value was -1.19. Take RRIRCRPPRLPRPRPRPAACPRP: the “shrunken log2 fold change” value is 0.202.

In the case of RRIRRRPPRLPRPRPRPNALPRP, the “shrunken log2 fold change” value was 0.261. For the sequence RRIRWRPPRLPRPRPRPDMPPRP, the “shrunken log2 fold change” value was determined as 0.325. Then RRIRHRPPRLPRPRPRPADMPRP, with 0.0208; and RRIRKRPPRLPRPRPRPMVWPRP, with 0.722.

As for RRIRMRPPRLPRPRPRPDLMPRP, the “shrunken log2 fold change” value was -0.0157.

Regarding RRIRERPPRLPRPRPRPRFEPRP, the “shrunken log2 fold change” value was 0.168. In the case of RRIRPRPPRLPRPRPRPEHTPRP, the “shrunken log2 fold change” value is -0.112. RRIRMRPPRLPRPRPRPMYDPRP: the “shrunken log2 fold change” value was -0.0496.

As for RRIRWRPPRLPRPRPRPQEPPRP, the “shrunken log2 fold change” value turned out to be 0.316.

With RRIRPRPPRLPRPRPRPTWDPRP, the “shrunken log2 fold change” value was determined as 0.42. Then RRIRQRPPRLPRPRPRPHTTPRP, with 0.182.

With RRIRARPPRLPRPRPRPDLVPRP, the “shrunken log2 fold change” value turned out to be 0.249. As to RRIRLRPPRLPRPRPRPTKYPRP, the “shrunken log2 fold change” value was -0.47. As for RRIRGRPPRLPRPRPRPNPRPRP, the “shrunken log2 fold change” value is 0.684. Then RRIRQRPPRLPRPRPRPRHCPRP, with -0.0425; and RRIRYRPPRLPRPRPRPVNIPRP, with -0.617; and RRIRVRPPRLPRPRPRPSHAPRP, with -0.24. For RRIRRRPPRLPRPRPRPHVNPRP, the “shrunken log2 fold change” value is -0.0608. Regarding RRIRDRPPRLPRPRPRPIVEPRP, the “shrunken log2 fold change” value was found to be 0.0518.

Turning to RRIRGRPPRLPRPRPRPNATPRP, the “shrunken log2 fold change” value was 3.1. Regarding RRIRVRPPRLPRPRPRPDSPPRP, the “shrunken log2 fold change” value was 0.0663.

Turning to RRIRLRPPRLPRPRPRPQIAPRP, the “shrunken log2 fold change” value was -0.0971. In the case of RRIRWRPPRLPRPRPRPKGGPRP, the “shrunken log2 fold change” value was 0.536. Take RRIRIRPPRLPRPRPRPWQQPRP: the “shrunken log2 fold change” value came to 0.0529. On to RRIRTRPPRLPRPRPRPNFNPRP, for which the “shrunken log2 fold change” value is -0.356.

On to RRIRSRPPRLPRPRPRPWFNPRP, for which the “shrunken log2 fold change” value was -0.227. For RRIRRRPPRLPRPRPRPNSFPRP, the “shrunken log2 fold change” value is -0.29.

For RRIRFRPPRLPRPRPRPIITPRP, the “shrunken log2 fold change” value was -0.5. As for RRIRRRPPRLPRPRPRPGYMPRP, the “shrunken log2 fold change” value was determined as 0.0939.

Take RRIRDRPPRLPRPRPRPPPPPRP: the “shrunken log2 fold change” value stood at 0.899.

Turning to RRIRVRPPRLPRPRPRPIKVPRP, the “shrunken log2 fold change” value is -0.167. Regarding RRIRYRPPRLPRPRPRPKLRPRP, the “shrunken log2 fold change” value was -0.111. Consider RRIRNRPPRLPRPRPRPTKKPRP, for which the “shrunken log2 fold change” value came out at 0.0702. Take RRIRPRPPRLPRPRPRPKKIPRP: the “shrunken log2 fold change” value worked out at 0.0064.

As to RRIRIRPPRLPRPRPRPNSLPRP, the “shrunken log2 fold change” value was -0.457. On to RRIRERPPRLPRPRPRPWAGPRP, for which the “shrunken log2 fold change” value is -0.208. Regarding RRIRHRPPRLPRPRPRPEIDPRP, the “shrunken log2 fold change” value is 0.0729. For the sequence RRIRSRPPRLPRPRPRPYEPPRP, the “shrunken log2 fold change” value is -0.619. Then RRIRKRPPRLPRPRPRPFPRPRP, with 0.297. RRIRNRPPRLPRPRPRPGLGPRP: the “shrunken log2 fold change” value was determined as 0.611. RRIRQRPPRLPRPRPRPPFCPRP: the “shrunken log2 fold change” value is -0.284.

Take RRIRARPPRLPRPRPRPIETPRP: the “shrunken log2 fold change” value is -0.18. As for RRIRGRPPRLPRPRPRPTNQPRP, the “shrunken log2 fold change” value came to 0.579. As to RRIRWRPPRLPRPRPRPVCVPRP, the “shrunken log2 fold change” value was 0.193. Next, RRIRERPPRLPRPRPRPIFEPRP: 0.0601; RRIRGRPPRLPRPRPRPLLPPRP: 0.895; RRIRKRPPRLPRPRPRPHNPPRP: -0.0541.

Consider RRIRARPPRLPRPRPRPYVKPRP, for which the “shrunken log2 fold change” value was -0.539. As to RRIRPRPPRLPRPRPRPDLIPRP, the “shrunken log2 fold change” value was -0.036. Then RRIRMRPPRLPRPRPRPCVIPRP, with -0.04; and RRIRLRPPRLPRPRPRPSQTPRP, with -0.217; and RRIRARPPRLPRPRPRPEYSPRP, with 0.0132. For the sequence RRIRHRPPRLPRPRPRPPHWPRP, the “shrunken log2 fold change” value was determined as 0.375. With RRIRQRPPRLPRPRPRPEARPRP, the “shrunken log2 fold change” value was -0.00982. Take RRIRYRPPRLPRPRPRPYLQPRP: the “shrunken log2 fold change” value is -1.9. As to RRIRHRPPRLPRPRPRPHVVPRP, the “shrunken log2 fold change” value is -0.0954. For the sequence RRIRERPPRLPRPRPRPHRLPRP, the “shrunken log2 fold change” value is -0.18. For the sequence RRIRNRPPRLPRPRPRPRQEPRP, the “shrunken log2 fold change” value amounted to 0.00772. On to RRIRSRPPRLPRPRPRPAAVPRP, for which the “shrunken log2 fold change” value was found to be 0.418. Regarding RRIRPRPPRLPRPRPRPRDTPRP, the “shrunken log2 fold change” value is -0.0427.

Take RRIRDRPPRLPRPRPRPICWPRP: the “shrunken log2 fold change” value was found to be 0.318. On to RRIRCRPPRLPRPRPRPATIPRP, for which the “shrunken log2 fold change” value is -0.55. For RRIRWRPPRLPRPRPRPPMRPRP, the “shrunken log2 fold change” value was 1.18.

For RRIRIRPPRLPRPRPRPVFKPRP, the “shrunken log2 fold change” value is -0.25. For the sequence RRIRGRPPRLPRPRPRPTGWPRP, the “shrunken log2 fold change” value came out at 1.04.

Regarding RRIRRRPPRLPRPRPRPVFMPRP, the “shrunken log2 fold change” value is 0.251. Next, RRIRRRPPRLPRPRPRPCSHPRP: -0.18; RRIRVRPPRLPRPRPRPCGVPRP: -0.0743; RRIRPRPPRLPRPRPRPALGPRP: 0.964. Then RRIRWRPPRLPRPRPRPRWPPRP, with 0.598; and RRIRRRPPRLPRPRPRPKCSPRP, with 0.504; and RRIRFRPPRLPRPRPRPNSLPRP, with -0.189.

Take RRIRRRPPRLPRPRPRPAFRPRP: the “shrunken log2 fold change” value was found to be 0.311. Consider RRIRVRPPRLPRPRPRPERKPRP, for which the “shrunken log2 fold change” value came to 0.111. Then RRIRLRPPRLPRPRPRPSVCPRP, with 0.0879; and RRIRTRPPRLPRPRPRPSNSPRP, with -1.22.

On to RRIRIRPPRLPRPRPRPMQCPRP, for which the “shrunken log2 fold change” value is -0.235. On to RRIRPRPPRLPRPRPRPDEMPRP, for which the “shrunken log2 fold change” value is 0.377.

Regarding RRIRSRPPRLPRPRPRPICPPRP, the “shrunken log2 fold change” value was -0.055. Next, RRIRVRPPRLPRPRPRPMGTPRP: 0.113. For the sequence RRIRVRPPRLPRPRPRPIKNPRP, the “shrunken log2 fold change” value was -0.361. On to RRIRVRPPRLPRPRPRPLIWPRP, for which the “shrunken log2 fold change” value is -0.0254.

For RRIRFRPPRLPRPRPRPAMCPRP, the “shrunken log2 fold change” value was -0.596.

As to RRIRCRPPRLPRPRPRPRCQPRP, the “shrunken log2 fold change” value was -0.146. RRIRVRPPRLPRPRPRPYHSPRP: the “shrunken log2 fold change” value is -1.02.

On to RRIRMRPPRLPRPRPRPDQHPRP, for which the “shrunken log2 fold change” value came out at 0.237. Consider RRIRPRPPRLPRPRPRPPCIPRP, for which the “shrunken log2 fold change” value came out at 0.00615. On to RRIRIRPPRLPRPRPRPNKQPRP, for which the “shrunken log2 fold change” value was -0.525. As to RRIRARPPRLPRPRPRPMCQPRP, the “shrunken log2 fold change” value was 0.13. Next, RRIRFRPPRLPRPRPRPACIPRP: -0.397. Turning to RRIRVRPPRLPRPRPRPWYHPRP, the “shrunken log2 fold change” value is -0.209. Take RRIRYRPPRLPRPRPRPCVWPRP: the “shrunken log2 fold change” value is -0.0563. For the sequence RRIRDRPPRLPRPRPRPCSLPRP, the “shrunken log2 fold change” value was -0.0409. With RRIRVRPPRLPRPRPRPKRMPRP, the “shrunken log2 fold change” value is 0.117.

In the case of RRIRNRPPRLPRPRPRPDKQPRP, the “shrunken log2 fold change” value turned out to be 0.00349. Regarding RRIRYRPPRLPRPRPRPDVTPRP, the “shrunken log2 fold change” value was -0.00733. Then RRIRRRPPRLPRPRPRPTMMPRP, with 0.167; and RRIRFRPPRLPRPRPRPGGKPRP, with 0.228; and RRIRQRPPRLPRPRPRPMWFPRP, with 0.153. In the case of RRIRERPPRLPRPRPRPQLKPRP, the “shrunken log2 fold change” value is -0.358. RRIRLRPPRLPRPRPRPWQAPRP: the “shrunken log2 fold change” value stood at 0.226.

For the sequence RRIRSRPPRLPRPRPRPCQVPRP, the “shrunken log2 fold change” value was -0.0521. As for RRIRNRPPRLPRPRPRPAIRPRP, the “shrunken log2 fold change” value was -0.0992.

For the sequence RRIRIRPPRLPRPRPRPNTCPRP, the “shrunken log2 fold change” value is -0.85. For the sequence RRIRFRPPRLPRPRPRPVHCPRP, the “shrunken log2 fold change” value is -0.0193. Turning to RRIRDRPPRLPRPRPRPFANPRP, the “shrunken log2 fold change” value is -0.177. Then RRIRPRPPRLPRPRPRPTQEPRP, with 0.617; and RRIRARPPRLPRPRPRPPTDPRP, with 0.839; and RRIRQRPPRLPRPRPRPFTKPRP, with -0.0312. For the sequence RRIRYRPPRLPRPRPRPSYSPRP, the “shrunken log2 fold change” value is -0.438. In the case of RRIRPRPPRLPRPRPRPEQEPRP, the “shrunken log2 fold change” value amounted to 0.278. Regarding RRIRQRPPRLPRPRPRPIWTPRP, the “shrunken log2 fold change” value came out at 0.0198.

For RRIRRRPPRLPRPRPRPQHAPRP, the “shrunken log2 fold change” value was 0.314. As for RRIRHRPPRLPRPRPRPATFPRP, the “shrunken log2 fold change” value was -0.662. RRIRMRPPRLPRPRPRPLIKPRP: the “shrunken log2 fold change” value came to 0.0477. Next, RRIRVRPPRLPRPRPRPLWWPRP: 0.855; RRIRCRPPRLPRPRPRPAPVPRP: 0.56.
